B1: wild Bactrian camel ACE2 ectodomain fused with mFc (Fc fusion)
chain: QSTTEELAKTFLEEFNHEAEDLSYQSSLASWNYNTNITDENVQKMNDARAKWSTFYEEKSKTAKTYPLEEIQNVTLKRQLQALQQSGASALSADKSKRLTTVLSTMSTIYSSGEVCDPNNPQECLVLEPGLDDIMENSKDYNQRLWAWEGWRAEVGKQLRPLYEEYVVLKNEMARANNYEDYGDYWRGDYEVMWAGDYDYSRDQLMGDVEHTFAEIKPLYEHLHAYVRAKLMDVYPSHISPTGCLPAHLLGDMWGRFWTNLYSLTVPFGQKPNIDVTEAMENQSWDAKRIFKEAEKFFVSIGLPNMTQGFWDNSMLTEPGDGRKVVCHPTAWDLGKGDFRIKMCTKVTMDDFLTAHHEMGHIQYDMAYAIQPFLLRNGANEGFHEAVGEIMSLSAATPHYLKALGLLPADFYEDSETEINFLLKQALTIVGTLPFTYMLEKWRWMVFKGEIPKEQWMQKWWEMKREIVGVVEPLPHDETYCDPACLFHVAEDYSFIRYYTRTIYQFQFHEALCQIAKHEGPLYKCDISNSTEAGQKLLQMLSLGKSEPWTLALEGLVGVKTMDVKPLLNYFEPLLTWLKDQNRNSFVGWSTDWTPYTDQSIKVRISLKSALGDKAYEWNDNEMYLFQSSLAYAMRKYFLKVQNQTILFGVEDVWVSDLKPRISFSFFVTSPKNVSDIIPRTEVEEAIRMSRSRINDAFRLDDNSLEFLGIQPTLGPPYEPP
B2: sheep ACE2 ectodomain fused with mFc (Fc fusion)
chain: QSTTEGQAKTFLEKFNHEAEDLSYQSSLASWNYNTNITDENVQKMNEARAKWSAFYEEQSRMARTYSLEEIQNLTLKRQLKALQHSGTSVLSAEKSKRLNTILNKMSTIYSTGKVLDPNTQECLALEPGLDDIMENSRDYNRRLWAWEGWRAEVGKQLRPLYEEYVVLENEMARANNYEDYGDYWRGDYEVTGAGDYDYSRDQLMKDVERTFEEIKPLYEQLHAYVRAKLMDTYPSYISPTGCLPAHLLGDMWGRFWTNLYSLTVPFEHKPSIDVTEKMKNQSWDAERIFKEAEKFFVSIGLPYMTQGFWDNSMLTEPGDGRKVVCHPTAWDLGKGDFRIKMCTKVTMDDFLTAHHEMGHIQYDMAYATQPYLLRNGANEGFHEAVGEIMSLSAATPHYLKALGLLAPDFYEDNETEINFLLKQALTIVGTLPFTYMLEKWRWMVFKGEIPKQQWMEKWWEMKREIVGVVEPLPHDETYCDPACLFHVAEDYSFIRYYTRTIYQFQFHEALCKTAKHEGALFKCDISNSTEAGQRLLQMLRLGKSEPWTLALENIVGIKTMDVKPLLNYFEPLFTWLKEQNRNSFVGWSTEWTPYSDQSIKVRISLKSALGENAYEWNDNEMYLFRSSVAYAMRKYFLKERNETIPFGEENVWVSDKKPRISFKFFVTSPNNVSDIIPRTEVENAIRLCRDRINDAFQLDDNSLEFLGIQPTLRPPYEPP

Molecular target: SARS-CoV-2 PT-RBD (SARS-CoV-2 prototype, UniProt P0DTC2)
Assay: SPR

| Binder | Kd [nM] |
| --- | --- |
| B1 | 993 |
| B2 | 171 |

Source: PMC12363175 (2025)
